The record followed here is publication PMC5603524, “An alternate mode of oligomerization for E. coli SecA” (Scientific Reports, 2017).

One series deals with SecA-N68∆C (E. coli) (UniProt P10408). Kind of series: AUC; sedimentation velocity, 20 °C, 50 mM Tris-HCl pH 7.5, 100 mM KCl, 2 mM EDTA, 5 mM MgCl2, 5 mM TCEP-HCl; SedFit analysis at a range of concentrations.
Another series deals with SecA-N68∆N (E. coli) (UniProt P10408). Described as above.
Series [1] concerns the molecule itself. Nature of the series: SEC; analytical gel filtration, Superdex 200 HR 10/30, 50 mM Tris-HCl pH 7.5, 100 mM KCl, 1 mM EDTA, 5 mM MgCl2, 5 mM β-mercaptoethanol, room temperature; H6-SecA-N68 applied at up to 4 mg/mL, SecA-N68∆NC at 10 mg/mL.
Series [2] concerns the molecule itself. Kind of series: AUC; sedimentation velocity, 20 °C, 50 mM Tris-HCl pH 7.5, 100 mM KCl, 2 mM EDTA, 5 mM MgCl2, 5 mM TCEP-HCl; SedFit analysis at a range of concentrations.
Series [3] deals with the molecule itself. Nature of the series: AUC; sedimentation equilibrium, 20 °C, 50 mM Tris-HCl pH 7.5, 100 mM KCl, 2 mM EDTA, 5 mM MgCl2; global fit of nine curves at three rotor speeds; dimer to monomers.

A word on the stoichiometry N: it is a count of units in the complex or per binding partner. What is called Kd is the constant that tells how readily two partners part at equilibrium.

Several values for one entry are separate records, joined by “and”; a condition that tells them apart may be missing. Identical values can stand only once.

“SecA-N68∆C (from UniProt P10408 1-590) (domain or fragment)” registered a stoichiometry N with SecA-N68∆C (E. coli) of 2.

In the series with SecA-N68∆N (E. coli), “SecA-N68∆N (from UniProt P10408 15-610) (domain or fragment)” returned a relative amount of the dimer at 4 mg/mL of 50% and a stoichiometry N of 2.

B1: H6-SecA-N68 (domain or fragment, E. coli, UniProt P10408 6-610, looked up)
chain: LTKVFGSRNDRTLRRMRKVVNIINAMEPEMEKLSDEELKGKTAEFRARLEKGEVLENLIPEAFAVVREASKRVFGMRHFDVQLLGGMVLNERCIAEMRTGEGKTLTATLPAYLNALTGKGVHVVTVNDYLAQRDAENNRPLFEFLGLTVGINLPGMPAPAKREAYAADITYGTNNEYGFDYLRDNMAFSPEERVQRKLHYALVDEVDSILIDEARTPLIISGPAEDSSEMYKRVNKIIPHLIRQEKEDSETFQGEGHFSVDEKSRQVNLTERGLVLIEELLVKEGIMDEGESLYSPANIMLMHHVTAALRAHALFTRDVDYIVKDGEVIIVDEHTGRTMQGRRWSDGLHQAVEAKEGVQIQNENQTLASITFQNYFRLYEKLAGMTGTADTEAFEFSSIYKLDTVVVPTNRPMIRKDLPDLVYMTEAEKIQAIIEDIKERTAKGQPVLVGTISIEKSELVSNELTKAGIKHNVLNAKFHANEAAIVAQAGYPAAVTIATNMAGRGTDIVLGGSWQAEVAALENPTAEQIEKIKADWQVRHDAVLEAGGLHIIGTERHESRRIDNQLRGRSGRQGDAGSSRFYLSMEDALMRIFASDRVSGMMRKL
notes: SecA, E. coli, residues 6 to 610; lacks the C-terminal helical domains; The tag MHHHHHH stands in place of the first residues of SecA and was not removed; also called His6-SecA-N68; N-terminal histidine-tagged version of SecA-N68; not shown: His6 (MHHHHHH), N-terminal, kept
For the molecule B1, the binding result in series [1] is recorded as “binds”.

B2: SecA-N95ΔN (domain or fragment, E. coli, UniProt P10408 15-835, looked up)
chain: DRTLRRMRKVVNIINAMEPEMEKLSDEELKGKTAEFRARLEKGEVLENLIPEAFAVVREASKRVFGMRHFDVQLLGGMVLNERCIAEMRTGEGKTLTATLPAYLNALTGKGVHVVTVNDYLAQRDAENNRPLFEFLGLTVGINLPGMPAPAKREAYAADITYGTNNEYGFDYLRDNMAFSPEERVQRKLHYALVDEVDSILIDEARTPLIISGPAEDSSEMYKRVNKIIPHLIRQEKEDSETFQGEGHFSVDEKSRQVNLTERGLVLIEELLVKEGIMDEGESLYSPANIMLMHHVTAALRAHALFTRDVDYIVKDGEVIIVDEHTGRTMQGRRWSDGLHQAVEAKEGVQIQNENQTLASITFQNYFRLYEKLAGMTGTADTEAFEFSSIYKLDTVVVPTNRPMIRKDLPDLVYMTEAEKIQAIIEDIKERTAKGQPVLVGTISIEKSELVSNELTKAGIKHNVLNAKFHANEAAIVAQAGYPAAVTIATNMAGRGTDIVLGGSWQAEVAALENPTAEQIEKIKADWQVRHDAVLEAGGLHIIGTERHESRRIDNQLRGRSGRQGDAGSSRFYLSMEDALMRIFASDRVSGMMRKLGMKPGEAIEHPWVTKAIANAQRKVESRNFDIRKQLLEYDDVANDQRRAIYSQRNELLDVSDVSETINSIREDVFKATIDAYIPPQSLEEMWDIPGLQERLKNDFDLDLPIAEWLDKEPELHEETLRERILAQSIEVYQRKEEVVGAEMMRHFEKGVMLQTLDSLWKEHLAAMDYLRQGIHLRGYAQKDPKQEYKRESFSMFAAMLESLKYEVISTLSKVQVRMPE
notes: SecA, E. coli, first 14 N-terminal residues removed, truncated at residue 835; also called SecA-N95∆N; SecA-N95ΔN14
With B2, the “stoichiometry N” value in series [2] amounted to 2. The molecule also showed a Kd in series [3] of 24.5 µM.

B3: SecA-N95 (domain or fragment, E. coli, UniProt P10408 1-835, looked up)
chain: MLIKLLTKVFGSRNDRTLRRMRKVVNIINAMEPEMEKLSDEELKGKTAEFRARLEKGEVLENLIPEAFAVVREASKRVFGMRHFDVQLLGGMVLNERCIAEMRTGEGKTLTATLPAYLNALTGKGVHVVTVNDYLAQRDAENNRPLFEFLGLTVGINLPGMPAPAKREAYAADITYGTNNEYGFDYLRDNMAFSPEERVQRKLHYALVDEVDSILIDEARTPLIISGPAEDSSEMYKRVNKIIPHLIRQEKEDSETFQGEGHFSVDEKSRQVNLTERGLVLIEELLVKEGIMDEGESLYSPANIMLMHHVTAALRAHALFTRDVDYIVKDGEVIIVDEHTGRTMQGRRWSDGLHQAVEAKEGVQIQNENQTLASITFQNYFRLYEKLAGMTGTADTEAFEFSSIYKLDTVVVPTNRPMIRKDLPDLVYMTEAEKIQAIIEDIKERTAKGQPVLVGTISIEKSELVSNELTKAGIKHNVLNAKFHANEAAIVAQAGYPAAVTIATNMAGRGTDIVLGGSWQAEVAALENPTAEQIEKIKADWQVRHDAVLEAGGLHIIGTERHESRRIDNQLRGRSGRQGDAGSSRFYLSMEDALMRIFASDRVSGMMRKLGMKPGEAIEHPWVTKAIANAQRKVESRNFDIRKQLLEYDDVANDQRRAIYSQRNELLDVSDVSETINSIREDVFKATIDAYIPPQSLEEMWDIPGLQERLKNDFDLDLPIAEWLDKEPELHEETLRERILAQSIEVYQRKEEVVGAEMMRHFEKGVMLQTLDSLWKEHLAAMDYLRQGIHLRGYAQKDPKQEYKRESFSMFAAMLESLKYEVISTLSKVQVRMPE
notes: SecA, E. coli, truncated at residue 835 (stop codon after residue 835); source: E. coli BL21(DE3), purified (ammonium sulfate, PhenylSepharose, Cibacron Blue Sepharose, MonoQ)
Regarding B3, the “stoichiometry N” value in series [2] is 2. In series [3], this molecule had a Kd below 1 µM.

B4: SecA-N68 with a wild-type N-terminus (domain or fragment, E. coli, UniProt P10408 1-610, looked up)
chain: MLIKLLTKVFGSRNDRTLRRMRKVVNIINAMEPEMEKLSDEELKGKTAEFRARLEKGEVLENLIPEAFAVVREASKRVFGMRHFDVQLLGGMVLNERCIAEMRTGEGKTLTATLPAYLNALTGKGVHVVTVNDYLAQRDAENNRPLFEFLGLTVGINLPGMPAPAKREAYAADITYGTNNEYGFDYLRDNMAFSPEERVQRKLHYALVDEVDSILIDEARTPLIISGPAEDSSEMYKRVNKIIPHLIRQEKEDSETFQGEGHFSVDEKSRQVNLTERGLVLIEELLVKEGIMDEGESLYSPANIMLMHHVTAALRAHALFTRDVDYIVKDGEVIIVDEHTGRTMQGRRWSDGLHQAVEAKEGVQIQNENQTLASITFQNYFRLYEKLAGMTGTADTEAFEFSSIYKLDTVVVPTNRPMIRKDLPDLVYMTEAEKIQAIIEDIKERTAKGQPVLVGTISIEKSELVSNELTKAGIKHNVLNAKFHANEAAIVAQAGYPAAVTIATNMAGRGTDIVLGGSWQAEVAALENPTAEQIEKIKADWQVRHDAVLEAGGLHIIGTERHESRRIDNQLRGRSGRQGDAGSSRFYLSMEDALMRIFASDRVSGMMRKL
notes: NBD1, PPXD and NBD2 with the unstructured N- and C-termini
Turning to B4, the “stoichiometry N” value in series [2] is 2 and 4.
